Residue numbers refer to the chain shown, from its start. Read-outs that look alike come from different tables or passages of the source.
B1: Nb29 (VHH)
VHH: QVKLVESGGGSVQAGGSLRLSCTASGSDYRWMYIARFRQCPGKEREGVAAIYTDDTDDSSPIYATSAKGRFTISQDKDKNAVYLQMNSPKPEDTAMYYCAARAFGGTWSLSSPDDFSAWGQGTQVTVSS
B2: Nb38 (VHH)
VHH: B1 VHH with R19I
B3: Nb17 (VHH)
VHH: QLQLVESGGGLVQPGGSLRLACAASGFNLDDYADIGWFRQAPGKERERVLCITISDGTTYYEDSGKGRFSISTDIAKNTVFLQMDSLKAEDTAVYYCAGDPAPFCLYNTYVPRTWGQGTQVTVSS
B4: Nb15 (VHH)
VHH: QLQLVESGGGLVQPGGSLSVSCAVRGRDLDYYVIGWFRQAPGKEREGVSCINNSDDTTYYSDSVKGRFTISRDHAKNTVYLQMNNLKPEDTALYYCAADFDRLDFTVKAMCVMKFFYYWGQGTQVTVSS
B5: Nb11 (VHH)
VHH: QLQLVESGGGLVQPGGSLRLSCTASKFHLDSYAVAWFRQTPGKEREAVSFINTSDDVTYFADSVKGRFTISRDNSKNTVYLQMNVLKPEDTSIYVCAAVRSPGPTGPSMQPMWSVPDLYDYWGQGTQVTVSS
B6: Nb6 (VHH)
VHH: QLQLVESGGDLAQPGGSLTLSCTASGTFKIYSMGWYRRPQRELVAEMLNGGDTQYSDSVKGRFTISRTNNTMYLHMNNLKPEDTAVYYCNLQDWYSEPAGDYWGPGTQVTVSS
B7: Nb43 (VHH)
VHH: QLQLVESGGGLVQSGGSLRLSCAASGFTFNDYRMSWVRQAPGKGLEWVSDINSGGSSTYYADSVKGRFTVSRDNAKNTLYLQMNSLKPEDTAIYYCVALLGRGCSGLVQGAFGPWGQGTQVTVSS
B8: Nb4 (anti-human pulmonary SP-A nanobody) (VHH)
VHH: QLQLVESGGGLVQPGGSLRLSCAASEFTLDYYEIGWFRQAPGKDREGLSCIGYSDRIAYYSESVKGRFTTVRDDATSTVSLYMDMMIPEDTGTYYCAGSVVEPYELLPAAEYDYWGQGTRVTVSS
notes: About 19 kDa on SDS-PAGE; also called Nb4-His; source: E. coli BL21 (pET-26b (+)-VHH), purified
B9: Nb4-FITC (VHH)
VHH: B8 VHH
notes: as the VHH chain of m1; Same nanobody as m1, with a FITC label; also called Nb4 labeled with FITC; source: E. coli BL21 (pET-26b (+)-VHH), purified, labeled with FITC

What was measured:
[1] = biological target: T1, human pulmonary SP-A protein in human lung tissue (Homo sapiens, endogenous lung tissue, UniProt Q8IWL2)
T1 sequence (Q8IWL2 21-248): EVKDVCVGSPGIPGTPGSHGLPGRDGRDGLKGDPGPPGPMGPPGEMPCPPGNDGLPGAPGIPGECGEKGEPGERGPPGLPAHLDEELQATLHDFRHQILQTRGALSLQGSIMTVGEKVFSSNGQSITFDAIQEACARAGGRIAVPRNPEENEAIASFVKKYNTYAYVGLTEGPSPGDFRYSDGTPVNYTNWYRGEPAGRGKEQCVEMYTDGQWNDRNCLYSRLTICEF

[2] = biological target: T2, recombinant human SP-A protein (pulmonary surfactant protein A) (Homo sapiens, UniProt Q8IWL2); assay: BLI; ForteBio's Octet System; Nb4 and purified recombinant human SP-A; who was immobilised is not stated; settings: both partners purified
T2 construct: human pulmonary surfactant protein A; gene provided by Shanghai YouLong Biotech; About 41 kDa on SDS-PAGE, which would fit a fusion with the carrier of the pET32 vector; also called purified recombinant SP-A; PET32-SPA; source: E. coli BL21 (PET32-SPA), purified
T2 sequence (Q8IWL2 21-248): as above

[3] = biological target: T1, human pulmonary SP-A protein in human …; assay: far-Western, overlay or dot blot; human lung tissue homogenate proteins separated by SDS-PAGE, transferred to a PVDF membrane and probed with Nb4 overnight at 4 °C; detected with anti-His-HRP; settings: one partner purified
[4] = biological target: T3, SP-A in human lung epithelial A549 cells (Homo sapiens, endogenous in A549 cells, UniProt Q8IWL2); assay: immunostaining of cells or tissue; fixed A549, L-02 and 293T cells stained with Nb4-FITC; confocal microscopy; settings: one partner purified
T3 construct: human pulmonary surfactant protein A, endogenous in A549 cells; source: endogenous, A549 cells, fixed
T3 sequence (Q8IWL2 21-248): as above

binding result [1]	further results	Binder
binds		B1
binds		B2
binds		B3
binds		B4
binds		B5
binds		B6
binds		B7
	Kd [2]: 748 nM; binding result [3]: binds	B8
	binding result [4]: binds	B9

Reference: paper PMC5431231, “Identification of a nanobody specific to human pulmonary surfactant protein A” (Scientific Reports, 2017)
